The results in this text go back to paper doi:10.1101/2023.12.06.570360.

This assay has as its target Htz1(T46C)-2xFLAG (yeast histone H2A.Z with a cysteine probe) (S. cerevisiae). As to the kind of experiment: cross-linking.

Substance “Hta1(N39C) (yeast histone H2A with a cysteine probe) (natural protein)” yielded a percent of bulk H2A.Z in the H2A-to-H2A.Z cross-linked adduct (WT cells) of 57%. The substance “Htz1(T46C)-2xFLAG (yeast histone H2A.Z with a cysteine probe) (natural protein)” registered a percent of bulk H2A.Z in the H2A.Z-to-H2A.Z cross-linked adduct (WT cells) of 12%.
